In article PMC10473755:

Molecular target: prion-like C-terminal domain of TDP-43 (TDP-43PrLD), in droplets with poly-A RNA (UniProt Q13148)
Test: co-sedimentation

Chain of prion-like C-terminal domain of TDP-43 (TDP-43PrLD), in droplets with poly-A RNA (Q13148 267-414): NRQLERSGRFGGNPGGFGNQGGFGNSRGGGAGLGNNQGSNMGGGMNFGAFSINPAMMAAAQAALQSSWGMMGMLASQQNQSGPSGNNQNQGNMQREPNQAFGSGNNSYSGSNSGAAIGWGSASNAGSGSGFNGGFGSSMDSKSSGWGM

percent of total αS partitioned into the droplets: 8%
Substance: α-synuclein, wild-type monomers (from UniProt P37840 1-140) (natural protein)
